Experimental data from US20200323863.

Legend:
[1] = target: YAP1 Recombinant Protein (Abnova H00010413-P01), P46937
[2] = target: T1, GST-MOB1 (GST fusion of MOB1, from pGEX-HA-MOB1), Q9H8S9
T1 chain: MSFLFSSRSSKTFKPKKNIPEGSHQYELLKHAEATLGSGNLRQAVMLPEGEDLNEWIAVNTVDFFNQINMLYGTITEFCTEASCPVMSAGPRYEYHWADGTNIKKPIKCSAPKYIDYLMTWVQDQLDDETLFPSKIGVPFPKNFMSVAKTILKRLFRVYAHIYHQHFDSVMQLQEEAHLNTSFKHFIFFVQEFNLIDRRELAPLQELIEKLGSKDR

B1: active recombinant human FAK (catalytic domain, FAK-C) (protein)
chain: ETDDYAEIIDEEDTYTMPSTRDYEIQRERIELGRCIGEGQFGDVHQGIYMSPENPALAVAIKTCKNCTSDSVREKFLQEALTMRQFDHPHIVKLIGVITENPVWIIMELCTLGELRSFLQVRKYSLDLASLILYAYQLSTALAYLESKRFVHRDIAARNVLVSSNDCVKLGDFGLSRYMEDSTYYKASKGKLPIKWMAPESINFRRFTSASDVWMFGVCMWEILMHGVKPFQGVKNNDVIGRIENGERLPMPPNCPPTLYSLMTKCWAYDPSRRPRFTELKAQLSTILEEEKAQQEERMRMESRRQ
YAP Y357 phosphorylation in an in vitro kinase reaction (immunoblot) [1]: FAK was able to phosphorylate YAP at Y357 in vitro
Y26 phosphorylation of GST-MOB1 in an in vitro kinase reaction (immunoblot) [2]: FAK was able to directly phosphorylate MOB1 on its Y26 by in vitro kinase reaction using purified recombinant proteins
